Numbering of substitutions follows the chain as printed. “And” between values parts separate entries of the source, which are not always exact repeats. Equal entries are not always repeated.
B1: EV1018 variant 2 (antibody, human IgG1, lambda, L234A L235A, V domains shown)
VH: QVELVESGGGMVQPGMPLRLSCVASGFTFSSYGMHWVRQAPGKGLEWVALTYHHGNRKFYADSVRGRFTISRDNSKNTLYLQMTSLRAEDTAVYFCARESMGAINDNWGQGTLVIVSS
VL: QSALTQETSVSGTVGQKVTLSCIGNNNNIGSHAVGWYQQISRGAPKMVLFGRSPPSGVPDRFSGSKSGTTASLIISGLQPEDEADYYCSTWDSSLSAVVFGGGTKLTVLG
B2: EV1018 (antibody, human IgG1, lambda)
heavy: not shown
light: QSALTQETSVSGTVGQKVTLSCIGNNNNIGSHAVGWYQQISRGAPKMVLFGRSPPSGVPDRFSGSKSGTTASLIISGLQPEDEADYYCSTWDSSLSAVVFGGGTKLTVLRQPKAAPSVTLFPPSSEELQANKATLVCLISDFYPGAVTVAWKADSSPVKAGVETTTPSKQSNNKYAASSYLSLTPEQWKSHRSYSCQVTHEGSTVEKTVAPTECS
notes: also called wild-type EV1018; WT EV1018
B3: EV1018 variant 1 (antibody, human IgG1, lambda, L234A L235A)
heavy: not shown
light: B2 light with R110G, A153G
B4: EV1019 (antibody, human IgG1, lambda, V domains shown)
VH: QAQLVESGGGVVKPGGSLRLSCISSKFTFSSHAMHWVRQAPGKGLEWVAVIWHDGSKKYYADSVKGRFSVSRDNSKNTLFLQMDSLRAEDTAVYFCGKEWVGGTCDSWGQGTLVIVSS
VL: QPALTQEASVSGTVGQTVTLLCSGNSSNIGSYAVGWYQQISRGAPKIVVFGKSPASGIPDRFSGSKSGTTASLLVSGLQPEDEADYYCSTWDSRLSAVLFGGGTKLTVLR
notes: Fully human IgG1 lambda; also called EV1019 Batch 1; EV1019 Batch 2

Tests used:
[1] = biological target: T1, purified hGM-CSF (Biomol #2514, expressed in E. coli) (human, UniProt P04141 18-144); test: cell-based or functional assay
T1 sequence (P04141 18-144 limits assumed): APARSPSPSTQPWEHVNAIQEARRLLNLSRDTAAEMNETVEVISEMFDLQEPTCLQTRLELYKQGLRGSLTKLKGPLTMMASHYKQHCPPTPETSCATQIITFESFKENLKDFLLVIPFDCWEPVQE

[2] = biological target: T1, purified hGM-CSF (Biomol #2514, …); test: cell-based or functional assay; remark: listed apart in the source
rhesus GM-CSF [3] = biological target: rhesus GM-CSF (rhesus); test: cell-based or functional assay
rhesus GM-CSF [4] = biological target: rhesus GM-CSF (rhesus); test: cell-based or functional assay; remark: listed apart in the source
[5] = biological target: T1, purified hGM-CSF (Biomol #2514, …); test: cell-based or functional assay; remark: listed apart in the source
marmoset GM-CSF = biological target: T2, marmoset GM-CSF (marmoset); test: Biacore, antibody on mouse anti-human chip, soluble marmoset GM-CSF
T2 construct: also called rmGM-CSF (derived from HEK cells); recombinant marmoset GM-CSF
Description: (§1) Mouse anti-human Biacore chips (GE Healthcare) are used to immobilize each of the antibodies and soluble commercially available purified GM-CSF (Biomol) is allowed to bind. The hGM-CSF used in these experiments is the same as that used in the bioassays described below.
A marmoset GM-CSF expression clone (e.g., GenBank Accession No. B0KWQ4 with Methionine at position 53 and Proline at position 109) similar to the rhesus GM-CSF expression clone described above is generated.

[6] = biological target: T1, purified hGM-CSF (Biomol #2514, …); test: own Biacore KD of EV1018 set against the 7 pM cited for MOR04357-Fab from WO2006/122797
[7] = biological target: T3, recombinant hGM-CSF derived from E. coli (Peprotech) (human, UniProt P04141 18-144); test: SPR (Biacore), antibody captured on protein G, hGM-CSF injected
T3 construct: Bought protein; also called E. coli hGM-CSF (Peprotech); E. coli rhGM-CSF
T3 sequence (P04141 18-144 limits assumed): as above
Experimental: (§2) To calculate affinity constants for recombinant hGM-CSF binding to anti-hGM-CSF monoclonal antibodies, surface plasmon resonance (SPR) was performed on a Biacore System™ (FIG. 2).
(§3) In the method to analyze the interaction between antibodies and antigens, the purified antibodies were captured on a sensor chip via interaction with protein G immobilized to sensor chip surface, and then recombinant antigens were injected to the sensor chip. Purified antibodies were used and recombinant hGM-CSF was used as an antigen.

[8] = biological target: T4, recombinant hGM-CSF derived from yeast (Leukine, Berlex) (human, UniProt P04141 18-144); test: as above
T4 construct: Bought protein; also called yeast hGM-CSF (Leukine); yeast rhGM-CSF
T4 sequence (P04141 18-144 limits assumed): as above
Experimental: as §2, §3

[9] = biological target: T1, purified hGM-CSF (Biomol #2514, …); test: Biacore, antibody on mouse anti-human chip, soluble hGM-CSF (Biomol)
Description: as §1

rhesus GM-CSF [10] = biological target: T5, rhesus GM-CSF (rhesus); test: Biacore, antibody on mouse anti-human chip, soluble rhesus GM-CSF
T5 construct: also called rrGM-CSF (derived from HEK cells); recombinant rhesus GM-CSF
Description: as §1
The rhesus GM-CSF sequence is present in the public databases (e.g., GenBank Accession No NP_{—}001028121) and is used to design an expression clone as an Fc fusion protein. Protease cleavage sites are introduced to allow release of untagged rhesus GM-CSF protein.

| Binder | IC50 in TF-1 proliferation assay [1] | IC50 in U937 IL-8 secretion assay [2] | IC50 in U937 IL-8 secretion assay (rhesus GM-CSF [3]) | IC50 in TF-1 proliferation assay (rhesus GM-CSF [4]) | Ratio: Reference antibody (BVD2-21C11) to antibody of interest, TF-1 assay [5] | Kd (marmoset GM-CSF) | times less binding than MOR04357 [6] | Kd [7] | Kd [8] | Kd [9] | Kd (rhesus GM-CSF [10]) |
| --- | --- | --- | --- | --- | --- | --- | --- | --- | --- | --- | --- |
| B1 | 33.3 pM |  |  |  |  |  |  |  |  |  |  |
| B2 | 2.3 ng/ml and 15 pM | 0.9 ng/ml and 6 pM | 0.8 ng/ml and 5.6 pM | 1.7 ng/ml and 11 pM | 413 ratio | 2100 pM | ~16 fold | 150 pM | 230 pM | 112 pM | 381 pM |
| B3 | 32 pM |  |  |  |  |  |  |  |  |  |  |
| B4 | 5.7 ng/ml and 38 pM | 4.7 ng/ml and 31.3 pM | 2.4 ng/ml and 16 pM | 2.8 ng/ml and 19 pM |  | 1400 pM |  | 150 pM | 360 pM | 152 pM | 739 pM and 543 pM |
